Data as given in patent US20140030274A1 (ALPHABETA, published 2014).

T1: KKAAAAAAAKK
T1 construct: Non-substrate peptide; also called A7; KKA7KK
T1 peptide: KKAAAAAAAKK

T2: KKVVVVVVVKK
T2 construct: Substrate peptide; also called V7; KKV7KK
T2 peptide: KKVVVVVVVKK

T3: KKVVVVVKK
T3 construct: Substrate peptide; also called V5; KKV5KK
T3 peptide: KKVVVVVKK


Tests used:
Aβ(M1-40) [1] = target: Aβ(M1-40) (human); assay: cell-based or functional assay
Aβ(M1-42) = Aβ(M1-42) (human); assay: cell-based or functional assay
Aβ(M1-40) [2] = target: T4, Aβ(M1-40) (human); assay: estimate from peak shapes in gel filtration (intermediate exchange on the gel filtration time scale)
T4 construct: Expressed in E. coli from a synthetic gene, and the monomer was isolated by gel filtration; also called Aβ40; human Aβ1-40 peptide
Protocol: Samples were injected from a 1 mL loop and chromatograms recorded by monitoring the absorbance at 280 nm. To monitor protein interactions, mixtures of Aβ and BRICHOS domains were injected directly after mixing or after 2 or 20 hours incubation at 37° C. in 20 mM Na-phosphate, 200 μM EDTA, 0.02% NaN₃ at pH 7.4 or pH 8.0. Fractions (0.3-0.7 ml) were collected during the chromatogram, lyophilized and analyzed by SDS PAGE in a 10-20% gradient gel.
The interaction between the BRICHOS proteins and Aβ was studied using gel filtration. Samples of 8 μM Aβ40 and 0.8 μM proSP-C BRICHOS, or 8 μM Aβ40 and 0.8 μM Bri2 BRICHOS, were incubated for 20 hours at 37° C., followed by gel filtration on a Superdex75 column, and SDS PAGE analysis of collected fractions.
The 20 h time point was chosen for investigating potential interactions between the BRICHOS protein and Aβ, because at this time point Aβ alone would have fibrillated and reached the equilibrium plateau, whereas samples containing 0.1 molar equivalent of proSP-C or Bri2 BRICHOS are still in the lag phase (c.f. FIG. 9). The data in FIG. 11 show clearly that at this time point almost all of Aβ40 is monomeric, while a minor fraction elutes together with proSP-C BRICHOS in fractions 2-6. Similar results are observed for 8 μM Aβ40 and 0.8 μM Bri2 BRICHOS (FIG. 12B). […]

[3] = target: the molecule itself; assay: crystal structure, subunit to subunit in the homotrimer
Protocol: Crystals suitable for structure determination were obtained within weeks by means of in situ proteolysis with trypsin. […] The structure presented herein was derived from crystals of seleno-methionylated protein, obtained using the sitting-drop method at 293 K and 277 K, in various concentrations ranging between 0.3-0.7 mM. A single crystal belonging to space group C2 (a=132.05 Å, b=39.33 Å, c=114.76 Å, β=99.6°) was grown from 0.1 M Bis-Tris pH 6.5 and 20% (w/v) PEG MME 5K. The crystal was soaked in 30% (w/v) PEG 400, flash-frozen in liquid nitrogen and used for data collection.
Data to 2.1 Å were collected at the European Synchrotron Radiation Facility, France, using an ADSC Q315 detector on the ID23eh1 beam line. All data were processed in MOSFLM12 and scaled in SCALA13. Data are essentially 100% complete to 2.3 Å Bragg spacing, then drop off rapidly and are only ˜60% complete in the outer resolution shell to 2.1 Å.

KKAAAAAAAKK = target: T1, KKAAAAAAAKK; assay: HDX-MS
Protocol: (§1) Deuterated buffers were prepared by three rounds of freeze-drying of the 1 M stock Tris buffer, pH 8, and reconstitution in 99.9% D₂O (Cambridge Isotopes, Andover, Mass.) to a final Tris concentration of 20 mM. To start the incubation at 22° C., CTC (CTproSP-C) stock solution with a concentration of 0.9 mM was diluted in deuterated Tris buffer to a final deuterium content of 92.5%. For CTC/peptide and proSP-C BRICHOS/peptide interaction studies, KKV₇KK, KKV₅KK, or KKA₇KK were pre-incubated with either Tris buffer or proteins, for 10 min at 22° C., and subsequently diluted in deuterated Tris buffer. Final concentrations were 30 μM CTC or proSP-C BRICHOS and 40 μM peptide. The deuterium content was 92.5%. Aliquots of 20 μl were collected in triplicates from three separate incubations after 1, 5, 10, 30, and 60 min. Fully deuterated protein was prepared by freeze-drying a sample of CTC, followed by resuspension in 99.9% D₂O and incubation for 4 h at 50° C. Deuterium exchange was quenched by transferring aliquots to pre-chilled Eppendorf tubes containing 0.5 μL 5% trifluoroacetic acid (TFA) (Merck, Darmstadt, Germany), vortexing, and freezing in liquid nitrogen. Samples were kept in liquid nitrogen until analyzed.
(§2) Aliquots of deuterated CTC were thawed and injected into an HPLC system using a pre-chilled Hamilton syringe. The system was submersed in an ice bath during analysis. […]

KKVVVVVVVKK = target: T2, KKVVVVVVVKK; assay: HDX-MS, 30 µM CTC and 40 µM peptide
Protocol: as §1, §2

KKVVVVVKK = target: T3, KKVVVVVKK; assay: HDX-MS, 30 µM CTC and 40 µM peptide
Protocol: as §1, §2

T4 sequence (peptide, as listed by the source): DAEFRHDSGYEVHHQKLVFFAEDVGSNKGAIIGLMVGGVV
Sequence of Aβ(M1-42) (human) (peptide, as listed by the source): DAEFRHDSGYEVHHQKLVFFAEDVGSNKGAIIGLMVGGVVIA

Row | Binder | 10-fold increase in lag time of Aβ40 aggregation (ThT fluorescence) (Aβ(M1-40) [1]) | molar ratio above which the lag time of Aβ40 aggregation exceeds one week (Aβ(M1-40) [1]) | ten-fold increase in lag time of Aβ42 aggregation (ThT fluorescence) (Aβ(M1-42)) | koff (Aβ(M1-40) [2]) | binding result [3] | ratio above which Aβ40 aggregation does not occur within one week (Aβ(M1-40) [1]) | binding result (KKAAAAAAAKK) | binding result (KKVVVVVVVKK) | binding result (KKVVVVVKK)
1 | Bri2 BRICHOS (recombinant human Bri2 BRICHOS construct as described in Peng et al. 2010) (other, also called Bri2 BRICHOS domain; BRICHOS protein) GIKYIKDDVILNEPSADAPAALYQTIEENIKIFEEEEVEFISVPVPEFADSDPANIVHDFNKKLTAYLDLNLDKCYVIPLNTSIVMPPRNLLELLINIKAGTYLPQSYLIHEHMVITDRIENIDHLGFFIYRLCHDKETYKLQRRET | ~0.01 equivalents | 0.025 molar ratio | ~0.6 molar equivalents | 0.001 to 0.01 s⁻¹ | – | – | – | – | –
2 | crystallised proSP-C BRICHOS trimer (seleno-methionylated CTC after in situ proteolysis with trypsin, residues 82-160 and 168-197 of proSP-C) (other, seleno-methionylated protein; seleno-methionylated protein; disulfide bridge Cys121-Cys189 to the second chain, There are two trimers per asymmetric unit, and data extend to 2.1 Å; Residues about 149-180 are not modelled; also called crystallized protein) chain 1: LALSEHLVTTATFSIGSTGLVVYDYQQLLIAYKPAPGTCCYIMKIAPESIPSLEALNRKVHNFQMECSLQAKPAVPTSK chain 2: DAGSAPSGGDPAFLGMAVNTLCGEVPLYYI | – | – | – | – | binds | – | – | – | –
3 | proSP-C BRICHOS (recombinant human, His59 to Ile197 of proSP-C, Examples 4-8) (other, Expressed in E. coli, with the thioredoxin and His6-tag removed by thrombin; Gel filtration indicates a trimer at 0 h and monomers eluting with Aβ after 20 h; also called recombinant human proSP-C BRICHOS; BRICHOS protein) HMSQKHTEMVLEMSIGAPEAQQRLALSEHLVTTATFSIGSTGLVVYDYQQLLIAYKPAPGTCCYIMKIAPESIPSLEALNRKVHNFQMECSLQAKPAVPTSKLGQAEGRDAGSAPSGGDPAFLGMAVNTLCGEVPLYYI | ~0.03 equivalents | 0.06 molar ratio | ~0.6 molar equivalents | 0.001 to 0.01 s⁻¹ | – | 10 Aβ40 molecules per 1 proSP-C BRICHOS | – | – | –
4 | CTproSP-C, the C-terminal domain of lung surfactant protein C precursor (residues 59-197 of human proSP-C) (other, also called CTC; recombinant CTC) HMSQKHTEMVLEMSIGAPEAQQRLALSEHLVTTATFSIGSTGLVVYDYQQLLIAYKPAPGTCCYIMKIAPESIPSLEALNRKVHNFQMECSLQAKPAVPTSKLGQAEGRDAGSAPSGGDPAFLGMAVNTLCGEVPLYYI | – | – | – | – | – | – | no binding (tested: 30 µM CTC and 40 µM peptide) | binds | binds
